Data reported in article PMC5472786.
Each block holds one substance with its values, some of them ahead of it.

Tests used:
[1] = test system: INO80 complex (Ino80-FLAG) (Saccharomyces cerevisiae S288C); assay: EMSA; details: saturating INO80, 30 C, EMSA: 10 mM Na-HEPES pH 7.8, 4 mM MgCl2, 60 mM NaCl, 0.2 mM EGTA, 0.04 mM EDTA, 8% glycerol, 0.1 ug/uL BSA, 30 min, footprinting and crosslinking at 30 C
[2] = test system: Ino80 (catalytic subunit within INO80 complex) (Saccharomyces cerevisiae S288C); assay: site-specific DNA photocrosslinking; details: 10 A tether, in INO80 complex, AB-dUMP (10 A) or ABG2-dUMP (18.6 A) at nt -58 from dyad, EMSA: 10 mM Na-HEPES pH 7.8, 4 mM MgCl2, 60 mM NaCl, 0.2 mM EGTA, 0.04 mM EDTA, 8% glycerol, 0.1 ug/uL BSA, 30 C, 30 min, footprinting and crosslinking at 30 C
[3] = target: H2A-containing mono-nucleosome (recombinant Xenopus laevis histone octamer on 601 DNA with 70 bp of extranucleosomal DNA) (Xenopus laevis) (UniProt P06897); assay: native gel or EMSA; 70N0 nucleosomes with photoreactive DNA bound with saturating amounts of INO80 at 30 °C; extent of binding assessed on 4% native polyacrylamide gels

Substance: 70N0 nucleosome, photoreactive dUMP at nt -33/-30
binding signal (% nucleosomes bound) ([1]; photoreactive dUMP at nt -30 to -33 from dyad): > 90

Substance: 70N0 nucleosome, photoreactive dUMP at nt -58
binding signal (% nucleosomes bound) ([1]; AB-dUMP (10 A) or ABG2-dUMP (18.6 A) at nt -58 from dyad): > 90
binding signal (fold crosslinking vs no nucleotide) ([2]; ADP): 4
binding signal (fold crosslinking vs no nucleotide) ([2]; ATPgS): 4

percent of nucleosomes bound [3]: > 90%
Substance: INO80 complex (from UniProt P53115 1-1489; P80428 1-489; P40154 1-320)
